The target in assay [1] is NS4B (genotype 1b) fused to mCherry (Hepatitis C virus genotype 1b) (UniProt Q9WMX2). Description: FRET or BRET. (BRET reads energy transfer from a luciferase to a nearby fluorophore.)
In assay [2] the target is NS4B (genotype 1b) fused to GFP (Hepatitis C virus genotype 1b) (UniProt Q9WMX2). Description: FRET or BRET.
The target in assay [3] is NS4B (genotype 2a) fused to mCherry (Hepatitis C virus genotype 2a) (UniProt Q99IB8). Nature of the assay: FRET or BRET.
In assay [4] the target is NS4B (genotype 2a) W204A fused to mCherry (Hepatitis C virus genotype 2a). Nature of the assay: FRET or BRET.
Assay [5] deals with NS4B (genotype 2a) fused to mCherry (Hepatitis C virus genotype 2a) (UniProt Q99IB8). Description: FRET or BRET. This is another data set of the same source.
In assay [6] the target is pBIND-NS4B C-terminal domain W204A (Hepatitis C virus genotype 2a). Nature of the assay: two-hybrid.

Like-named read-outs stand apart in the source and are kept apart here.

For “NS4B (genotype 1b) fused to GFP (from UniProt Q9WMX2 1712-1972) (natural protein)”, the mean FRET efficiency (EF) in assay [1] turned out to be 6.6.
For the substance “NS5A (genotype 1b) fused to mCherry (from UniProt Q9WMX2 1973-2419) (natural protein)”, the mean FRET efficiency (EF) in assay [2] stood at 6.
In assay [3], “NS5A (genotype 2a) a.a. 1–352 fused to GFP (domain or fragment)” gave a mean FRET efficiency (Ef) of 9.3.
Turning to “NS5A (genotype 2a) fused to GFP (from UniProt Q99IB8 1977-2442) (natural protein)”, the mean FRET efficiency (Ef) in assay [4] is 1.3; in assay [5], 6.5; in assay [3], 9.6. The mean FRET efficiency (EF) turned out to be 6.5 in assay [1] and 5.5 in assay [3].
For “pACT-NS5A (full length NS5A of genotype 2a fused to VP16) (from UniProt Q99IB8 1977-2442) (natural protein)”, the reduction in luciferase activity compared to the wild type in assay [6] was 30%.
